In IntAct's records for PubMed 21822214:

B1: B-cell linker protein (Homo sapiens), Q8WV28 (parent)
chain: MDKLNKITVPASQKLRQLQKMVHDIKNNEGGIMNKIKKLKVKAPPSVPRRDYASESPADEEEQWSDDFDSDYENPDEHSDSEMYVMPAEENADDSYEPPPVEQETRPVHPALPFARGEYIDNRSSQRHSPPFSKTLPSKPSWPSEKARLTSTLPALTALQKPQVPPKPKGLLEDEADYVVPVEDNDENYIHPTESSSPPPEKAPMVNRSTKPNSSTPASPPGTASGRNSGAWETKSPPPAAPSPLPRAGKKPTTPLKTTPVASQQNASSVCEEKPIPAERHRGSSHRQEAVQSPVFPPAQKQIHQKPIPLPRFTEGGNPTVDGPLPSFSSNSTISEQEAGVLCKPWYAGACDRKSAEEALHRSNKDGSFLIRKSSGHDSKQPYTLVVFFNKRVYNIPVRFIEATKQYALGRKKNGEEYFGSVAEIIRNHQHSPLVLIDSQNNTKDSTRLKYAVKVS

Variants of: B1
Settings: with cd2ap_human CD2AP

effect of a mutation on the interaction	Variant
disrupting interaction	MDKLNKITVPASQKLRQLQKMVHDIKNNEGGIMNKIKKLKVKAPPSVPARDYASESPADEEEQWSDDFDSDYENPDEHSDSEMYVMPAEENADDSYEPPPVEQETRPVHPALPFARGEYIDNRSSQRHSPPFSKTLPSKPSWPSEKARLTSTLPALTALQKPQVPPKPKGLLEDEADYVVPVEDNDENYIHPTESSSPPPEKAPMVNRSTKPNSSTPASPPGTASGRNSGAWETKSPPPAAPSPLPAAGKKPTTPLKTTPVASQQNASSVCEEKPIPAERHRGSSHRQEAVQSPVFPPAQKQIHQKPIPLPAFTEGGNPTVDGPLPSFSSNSTISEQEAGVLCKPWYAGACDRKSAEEALHRSNKDGSFLIRKSSGHDSKQPYTLVVFFNKRVYNIPVRFIEATKQYALGRKKNGEEYFGSVAEIIRNHQHSPLVLIDSQNNTKDSTRLKYAVKVS [R49A;R247A;R312A]
